Tests used:
[1] = Bioactivity test (USP limit, USP 121 Insulin Assays); details: for Bioactivity: USP limit min. 15 IU/mg
Method: According to one embodiment of the present invention, the composition is prepared by based on USP 121 formula (The United States Pharmacopeial Convention 2015, [121] Insulin Assays). This is important in order to minimize the risk of adverse effects, both local and systemic. It is important that human insulin in the composition is used without extra excipients because, its amino acid sequence and biological activity are the same as those of the human body and are safe and have no toxic or side effects.

[2] = Particle size measurement of human insulin before and after micronization; type: physicochemical
Method: According to one embodiment of the present invention, after micronization, the micronized human insulin has a d(0.1) particle size which is less than 5 μm or less than 3 μm or less than 2 μm.
According to one embodiment of the present invention, the micronized human insulin particles were prepared by using supercritical fluid process.

Substance	Bioactivity ([1]; After Micronization)	Protein activity at the end of the micronization process (versus before) ([1]; without any change in protein structure)	d(0.1) particle size ([2]; After Micronization)	d(0.5) particle size ([2]; After Micronization)	d(0.9) particle size ([2]; After Micronization)	Bioactivity ([1]; Before Micronization)	d(0.1) particle size ([2]; Before Micronization)	d(0.5) particle size ([2]; Before Micronization)	d(0.9) particle size ([2]; Before Micronization)
micronized human insulin: recombinant, unmodified human insulin with particle size reduced by supercritical fluid (SAS) process	34.72 IU/mg	protein activity increased	1.654 μm	5.273 μm	12.54 μm				
human insulin: recombinant human insulin, unmodified primary structure, before micronization						16.02 IU/mg	1.96 μm	13.24 μm	25.12 μm
